Assay [1] deals with T1, human IL-23 (Sino Biological, CT048-H08H) (human, UniProt Q9NPF7 20-189; P29460 23-328).
T1 construct: also called human IL-23 protein; Human IL-23 p19
T1 sequence (looked up) 1: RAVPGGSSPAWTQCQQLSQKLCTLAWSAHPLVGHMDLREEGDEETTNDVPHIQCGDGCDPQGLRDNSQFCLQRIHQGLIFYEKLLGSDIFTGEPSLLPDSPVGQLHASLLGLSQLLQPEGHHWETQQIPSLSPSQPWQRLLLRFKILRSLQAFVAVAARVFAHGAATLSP
T1 sequence (looked up) 2: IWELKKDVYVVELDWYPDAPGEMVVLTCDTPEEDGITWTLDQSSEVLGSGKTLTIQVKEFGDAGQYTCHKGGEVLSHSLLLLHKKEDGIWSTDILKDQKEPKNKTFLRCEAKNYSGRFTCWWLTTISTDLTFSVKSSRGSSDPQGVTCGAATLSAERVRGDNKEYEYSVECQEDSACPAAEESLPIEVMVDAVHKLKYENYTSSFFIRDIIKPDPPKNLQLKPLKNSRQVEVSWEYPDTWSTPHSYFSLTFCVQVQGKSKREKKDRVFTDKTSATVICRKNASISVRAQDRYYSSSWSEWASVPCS
Briefly: SPR (Biacore), Protein A capture of sample, 1:1 model. As for the experimental part: A certain amount of test sample was subjected to affinity capture by a biosensor chip Protein A (GE, 29127556), and then antigens at a series of concentration gradients were allowed to flow on the surface of the chip. The reaction signals were detected in real time by using Biacore (GE, 8 K) to obtain association and dissociation curves. After the dissociation was completed for each cycle, the biochip was washed and regenerated with a 10 mM glycine-hydrochloric acid solution at pH 1.5 (GE, BR-1003-54). Fitting was performed based on the experimental data using BlAevaluation version 4.1 software with a 1:1 model, and affinity values were obtained.

The target of assay [2] is T1, human IL-23 (Sino Biological, …). Briefly: cell-based or functional assay.
The target is the same in assay [3]. Put plainly: competition ELISA, blocks IL-23/IL-23R; IL-23R coated, biotin-IL-23 + sample gradient. As for the experimental part: The specific procedures are as follows:
The receptor protein was diluted to 2 μg/mL with a PBS (BasalMedia, B320) buffer at pH 7.4 and added to a 96-well microplate (Corning, 3590) at 100 μL/well. The plate was incubated at 4° C. overnight. After the liquid was discarded, 1 % Casein blocking solution (Thermo, 37528) was added at 200 μL/well for blocking, and the plate was incubated at 37° C. for 2 h. After the blocking was complete, the blocking solution was discarded, and the plate was washed 3 times with a PBST buffer (pH 7.4 PBS containing 0.1 % tween-20) for later use. After the biotin-labeled ligand protein at a fixed concentration was mixed with an antibody or fusion protein diluted in a gradient, the mixture was pre-incubated at 37° C. for 30 min and then added to the blocked microplate. The plate was incubated at 37° C. for 1.5 h. After the incubation was complete, the plate was washed 3 times with PBST. Streptavidin-HRP (Invitrogen, 434323, diluted at 1:4000) was added at 100 μL/well, and the plate was incubated at 37° C. for 1 h. The supernatant was removed. After the plate was washed 3 times with PBST, TMB chromogenic substrate (KPL, 5120-0077) was added at 100 μL/well, and the plate was incubated at room temperature for 10⁻¹⁵ min. 1 M H₂SO₄ was added at 50 μL/well to terminate the reaction. The absorbance values at 450 nm were taken using a microplate reader. Curves for the inhibition of binding of the ligands to the receptors were fitted using software, and the IC₅₀ values were calculated.

B1: Hu38-10 (antibody, human IgG1, kappa, L234A L235A, V domains shown)
VH: EFQLVQSGAEVKKPGASVKVSCKASGYSFTDHNMNWVRQAPGQRLEWMGVINPNYGTTTYNQKFKGRVTITVDQSASTAYMELSSLRSEDTAVYYCARRGFAYWGQGTLVTVSS
VL: DIVMTQTPLSLPVTPGEPASISCRSSKSLLYKDGKTYLNWFLQKPGQSPQLLIYLMSTRASGVPDRFSGSGSGTDLTLKISRVEAEDVGVYYCQQIAEYPFTFGSGTKLEIKR
notes: humanized mAb38, IgG1/kappa
In assay [1], B1 gave a Kd of 0.197 nM, a koff of 7.07e-05 s⁻¹ and a kon of 358000 M⁻¹ s⁻¹. For the same molecule, the “Activity in inhibiting proliferation of BaF3-IL-23R cells (IC50, nM)” value (“Activity in inhibiting proliferation” below) in assay [2] is 0.116 nM.

B2: Hu38-7 (antibody, human IgG1, kappa, L234A L235A, V domains shown)
VH: EVQLVQSGAEVKKPGASVKVSCKASGYSFTDHNMNWVRQAPGQRLEWMGVINPNYGTTTYNQKFKGRVTITVDTSASTAYMELSSLRSEDTAVYYCARRGFAYWGQGTLVTVSS
VL: DIVITQTPLSLPVTPGEPASISCRSSKSLLYKDGKTYLNWFLQRPGQSPQLLIYLMSTRASGVPDRFSGSGSGTDLTLKISRVEAEDVGVYYCQQIAEYPFTFGSGTKLEIKR
notes: humanized mAb38, IgG1/kappa
B2: in assay [1], the Kd amounted to 0.152 nM, the koff was 7.41e-05 s⁻¹ and the kon came out at 486000 M⁻¹ s⁻¹. Besides, in assay [2], the “Activity in inhibiting proliferation” value stood at 0.179 nM.

B3: Hu38-12 (antibody, human IgG1, kappa, L234A L235A, V domains shown)
VH: EFQLVQSGAEVKKPGASVKVSCKASGYSFTDHNMNWVRQAPGQRLEWMGVINPNYGTTTYNQKFKGRVTITVDQSASTAYMELSSLRSEDTAVYYCARRGFAYWGQGTLVTVSS
VL: DIVMTQTPLSLPVTPGEPASISCRSSKSLLYKDGKTYLNWFLQKPGQSPQLLIYLMQTRASGVPDRFSGSGSGTDLTLKISRVEAEDVGVYYCQQIAEYPFTFGSGTKLEIKR
notes: humanized mAb38, IgG1/kappa
As to B3, in assay [1], binding was put at a Kd of 0.191 nM, the koff is 6.12e-05 s⁻¹ and the kon was 321000 M⁻¹ s⁻¹. Besides, in assay [2], the “Activity in inhibiting proliferation” value stood at 0.184 nM.

B4: Hu38-14 (antibody, human IgG1, kappa, L234A L235A, V domains shown)
VH: EFQLVQSGAEVKKPGASVKVSCKASGYSFTDHNMNWVRQAPGQSLEWMGVINPNYGTTTYNQKFKGRVTITVDQSASTAYMELSSLRSEDTAVYYCARRGFAYWGQGTLVTVSS
VL: DIVMTQTPLSLPVTPGEPASISCRSSKSLLYKDGKTYLNWFLQKPGQSPQLLIYLMSTRASGVPDRFSGSGSGTDLTLKISRVEAEDVGVYYCQQIAEYPFTFGSGTKLEIKR
notes: humanized mAb38, IgG1/kappa
For the molecule B4, in assay [1], the equilibrium dissociation constant (Kd) worked out at 0.175 nM, the koff was determined as 5.45e-05 s⁻¹ and the kon is 312000 M⁻¹ s⁻¹. Besides, in assay [2], the “Activity in inhibiting proliferation” value was 0.152 nM.

B5: Hu38-3 (antibody, human IgG1, kappa, L234A L235A, V domains shown)
VH: EFQLVQSGAEVKKPGASVKVSCKASGYTFTDHNMNWVRQAPGQRLEWMGVINPNYGTTTYNQKFKGRVTITVDTSASTAYMELSSLRSEDTAVYYCARRGFAYWGQGTLVTVSS
VL: DIVITQTPLSLPVTPGEPASISCRSSKSLLYKDGKTYLNWFLQRPGQSPQLLIYLMSTRASGVPDRFSGSGSGTDLTLKISRVEAEDVGVYYCQQIAEYPFTFGSGTKLEIKR
notes: humanized mAb38, IgG1/kappa
For the molecule B5, in assay [1], the Kd is 0.113 nM, the koff turned out to be 4.44e-05 s⁻¹ and the kon is 393000 M⁻¹ s⁻¹. For the same molecule, the “Activity in inhibiting proliferation” value in assay [2] turned out to be 0.174 nM.

B6: Hu38-11 (antibody, human IgG1, kappa, L234A L235A, V domains shown)
VH: EFQLVQSGAEVKKPGASVKVSCKASGYSFTDHNMNWVRQAPGQRLEWMGVINPNYGTTTYNQKFKGRVTITVDQSASTAYMELSSLRSEDTAVYYCARRGFAYWGQGTLVTVSS
VL: DIVITQTPLSLPVTPGEPASISCRSSKSLLYKDGKTYLNWFLQRPGQSPQLLIYLMSTRASGVPDRFSGSGSGTDLTLKISRVEAEDVGVYYCQQIAEYPFTFGSGTKLEIKR
notes: humanized mAb38, IgG1/kappa
As for B6, in assay [1], the Kd is 0.176 nM, the off-rate constant (koff) amounted to 6.15e-05 s⁻¹ and the kon is 349000 M⁻¹ s⁻¹. Further, the “Activity in inhibiting proliferation” value in assay [2] is 0.168 nM.

B7: Hu38-16 (antibody, human IgG1, kappa, L234A L235A, V domains shown)
VH: EFQLVQSGAEVKKPGASVKVSCKASGYSFTDHNMNWVRQAPGQSLEWMGVINPNYGTTTYNQKFKGRVTITVDQSASTAYMELSSLRSEDTAVYYCARRGFAYWGQGTLVTVSS
VL: DIVMTQTPLSLPVTPGEPASISCRSSKSLLYKDGKTYLNWFLQKPGQSPQLLIYLMQTRASGVPDRFSGSGSGTDLTLKISRVEAEDVGVYYCQQIAEYPFTFGSGTKLEIKR
notes: humanized mAb38, IgG1/kappa
In assay [1], B7 returned a Kd of 0.161 nM, an off-rate (koff) of 5.49e-05 s⁻¹ and a kon of 341000 M⁻¹ s⁻¹. In assay [2], the “Activity in inhibiting proliferation” value stood at 0.146 nM.

B8: Hu38-8 (antibody, human IgG1, kappa, L234A L235A, V domains shown)
VH: EVQLVQSGAEVKKPGASVKVSCKASGYSFTDHNMNWVRQAPGQRLEWMGVINPNYGTTTYNQKFKGRVTITVDTSASTAYMELSSLRSEDTAVYYCARRGFAYWGQGTLVTVSS
VL: DIVMTQTPLSLPVTPGEPASISCRSSKSLLYKDGKTYLNWFLQKPGQSPQLLIYLMQTRASGVPDRFSGSGSGTDLTLKISRVEAEDVGVYYCQQIAEYPFTFGSGTKLEIKR
notes: humanized mAb38, IgG1/kappa
On to B8, for which, in assay [1], binding was put at a Kd of 0.168 nM, the koff was 4.75e-05 s⁻¹ and the kon was 282000 M⁻¹ s⁻¹. Moreover, in assay [2], the “Activity in inhibiting proliferation” value was 0.174 nM.

B9: Hu38-15 (antibody, human IgG1, kappa, L234A L235A, V domains shown)
VH: EFQLVQSGAEVKKPGASVKVSCKASGYSFTDHNMNWVRQAPGQSLEWMGVINPNYGTTTYNQKFKGRVTITVDQSASTAYMELSSLRSEDTAVYYCARRGFAYWGQGTLVTVSS
VL: DIVITQTPLSLPVTPGEPASISCRSSKSLLYKDGKTYLNWFLQRPGQSPQLLIYLMSTRASGVPDRFSGSGSGTDLTLKISRVEAEDVGVYYCQQIAEYPFTFGSGTKLEIKR
notes: humanized mAb38, IgG1/kappa
B9: in assay [1], binding was put at a Kd of 0.168 nM, the off-rate (koff) came out at 8.3e-05 s⁻¹ and the kon came out at 494000 M⁻¹ s⁻¹. Also, the “Activity in inhibiting proliferation” value in assay [2] amounted to 0.149 nM.

B10: Hu38-6 (antibody, human IgG1, kappa, L234A L235A, V domains shown)
VH: EVQLVQSGAEVKKPGASVKVSCKASGYSFTDHNMNWVRQAPGQRLEWMGVINPNYGTTTYNQKFKGRVTITVDTSASTAYMELSSLRSEDTAVYYCARRGFAYWGQGTLVTVSS
VL: DIVMTQTPLSLPVTPGEPASISCRSSKSLLYKDGKTYLNWFLQKPGQSPQLLIYLMSTRASGVPDRFSGSGSGTDLTLKISRVEAEDVGVYYCQQIAEYPFTFGSGTKLEIKR
notes: humanized mAb38, IgG1/kappa
As for B10, in assay [1], the dissociation constant (Kd) worked out at 0.143 nM, the koff turned out to be 3.91e-05 s⁻¹ and the association rate constant (kon) was found to be 273000 M⁻¹ s⁻¹. In assay [2], the “Activity in inhibiting proliferation” value was found to be 0.136 nM.

B11: Hu38-1 (antibody, human IgG1, kappa, L234A L235A, V domains shown)
VH: EFQLVQSGAEVKKPGASVKVSCKASGYTFTDHNMNWVRQAPGQRLEWMGVINPNYGTTTYNQKFKGRVTITVDTSASTAYMELSSLRSEDTAVYYCARRGFAYWGQGTLVTVSS
VL: DIVMTQTPLSLPVTPGEPASISCRSSKSLLYKDGKTYLNWYLQKPGQSPQLLIYLMSTRASGVPDRFSGSGSGTDFTLKISRVEAEDVGVYYCQQIAEYPFTFGSGTKLEIKR
notes: humanized mAb38, IgG1/kappa
In assay [1], B11 yielded a Kd of 0.206 nM, a koff of 4.56e-05 s⁻¹ and a kon of 222000 M⁻¹ s⁻¹. For the same molecule, in assay [2], the “Activity in inhibiting proliferation” value was 0.168 nM.

B12: risankizumab (antibody, human IgG1, kappa, L234A L235A, V domains shown)
VH: QVQLVQSGAEVKKPGSSVKVSCKASGYTFTDQTIHWMRQAPGQGLEWIGYIYPRDDSPKYNENFKGKVTITADKSTSTAYMELSSLRSEDTAVYYCAIPDRSGYAWFIYWGQGTLVTVSS
VL: DIQMTQSPSSLSASVGDRVTITCKASRDVAIAVAWYQQKPGKVPKLLIYWASTRHTGVPSRFSGSGSRTDFTLTISSLQPEDVADYFCHQYSSYPFTFGSGTKLEIKR
notes: control anti-IL-23 antibody; also called control molecule
In assay [1], B12 had a Kd of 0.0651 nM, an off-rate (koff) of 4.91e-05 s⁻¹ and a kon of 754000 M⁻¹ s⁻¹. Also, the half-inhibitory concentration (IC50) in assay [3] came out at 0.61 nM.
